Data published in US20200277385A1 (LABORATOIRE FRANCAIS DU FRACTIONNEMENT ET DES …, published 2020).
Residue numbers refer to the chain shown, from its start.

Key:
CD303 ectodomain = target: T1, CD303 ectodomain (human, UniProt Q8WTT0 45-213); assay: ELISA on coated CD303 ectodomain, 5 ng/mL antibody
T1 construct: also called ectodomain of the human CD303 antigen
T1 sequence: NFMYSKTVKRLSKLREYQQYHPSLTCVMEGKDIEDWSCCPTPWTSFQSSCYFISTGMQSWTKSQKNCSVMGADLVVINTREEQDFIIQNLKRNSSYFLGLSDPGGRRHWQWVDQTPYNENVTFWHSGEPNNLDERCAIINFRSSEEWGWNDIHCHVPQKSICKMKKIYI
Protocol: This technique, which uses a colorimetric approach, makes it possible to detect and visualize antigen-antibody interactions. The principle of ELISA is, first, to coat each well of a MaxiSorp plate with 10 ng of the antigen, in this case the CD303 ectodomain. The latter was purchased from the supplier Mybiosource. Second, the various antibodies produced, contained in the supernatant, are all diluted to the same concentration, and contacted with the antigen to allow them to bind. A third step consists in adding the secondary antibodies, HRP-conjugated anti-human antibody, necessary for amplified detection of the antigen-binding of the anti-CD303 antibodies. Lastly, detection is carried out using a solution containing the substrate for the enzyme (3,3′,5,5′-tetramethylbenzidine, or TMB). The appearance of coloring of the substrate indicates the formation of the antigen-antibody complex. The intensity of this coloring is proportional to the amount of enzyme present and thus to the amount of antibody tested bound to the antigen. The reaction is stopped by adding H₂SO₄ (acid). These colors are read using a spectrophotometer at a wavelength of 450 nm.
A concentration of 5 ng/mL is used to classify the humanized antibodies (FIG. 10).

[1] = target: T2, human CD303 antigen expressed on cells (human, UniProt Q8WTT0 1-213); assay: flow cytometry on CAL-1 cells
T2 construct: On Fcγ chain-CD303 Jurkat cells, CAL-1 cells, and CAL-1 cells transfected with a CD303 expression vector; also called BDCA-2; BDCA2
T2 sequence: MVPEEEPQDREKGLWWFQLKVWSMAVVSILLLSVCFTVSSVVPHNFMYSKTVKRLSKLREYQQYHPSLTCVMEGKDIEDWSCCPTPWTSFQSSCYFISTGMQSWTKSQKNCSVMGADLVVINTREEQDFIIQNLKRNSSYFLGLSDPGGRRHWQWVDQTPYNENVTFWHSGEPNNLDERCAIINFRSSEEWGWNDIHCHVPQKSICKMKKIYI
Protocol: (§1) The CD303-expressing cells and the antibodies are prepared in diluent (PBS+1% FCS). 1·10⁵ cells are incubated at 4° C. for 30 minutes with 100 μL of antibody (anti-CD303 or negative control) at various concentrations (0-40 μg/mL, final concentration).
(§2) After washing with the diluent, the antibodies are visualized by addition of a phycoerythrin (PE)-coupled goat anti-mouse IgG F(ab′)₂ fragment (100 μL diluted to 1:100 in the diluent) for 45 minutes at 4° C. The cells are then washed and analyzed by flow cytometry (FC500, Beckman Coulter).

[2] = target: T2, human CD303 antigen expressed on cells; assay: flow cytometry on Fcγ chain-CD303 Jurkat cells
Protocol: as §1, §2

FcγRIIIa (CD16a) [3] = target: T3, FcγRIIIa (CD16a) (UniProt P08637 17-254, limits assumed); assay: competition with 3G8-PE for CD16 on NK cells, flow cytometry
T3 construct: whole, on cells; also called Fcγ receptor III
T3 sequence (P08637 17-254 limits assumed): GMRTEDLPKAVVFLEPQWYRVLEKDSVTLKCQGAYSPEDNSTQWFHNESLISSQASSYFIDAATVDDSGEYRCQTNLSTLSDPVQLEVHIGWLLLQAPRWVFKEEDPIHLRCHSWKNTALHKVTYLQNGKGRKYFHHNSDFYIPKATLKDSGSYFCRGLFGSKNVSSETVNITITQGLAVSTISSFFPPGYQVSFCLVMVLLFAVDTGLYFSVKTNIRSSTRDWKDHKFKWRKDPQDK

[4] = target: T2, human CD303 antigen expressed on cells; assay: cell-based or functional assay
[5] = target: T2, human CD303 antigen expressed on cells; assay: cell-based or functional assay; remark: listed apart in the source
[6] = target: T2, human CD303 antigen expressed on cells; assay: flow cytometry on CAL-1 cells, 0.1 µg/mL, supernatant
Protocol: The line used to carry out this technique, CAL-1, is a leukemic cell line of plasmacytoid dendritic cells obtained from a BPDCN patient. The antibodies produced were tested in supernatant, but also in forms purified by affinity chromatography with protein A-sepharose (not elaborated upon herein).
For cell staining, the cells and the antibodies are prediluted with PBS/1% FCS. In a 100 μL reaction volume, 1·10⁵ cells are incubated at 4° C. for 30 minutes with the anti-CD303 antibodies to be tested, at two concentrations: 0.1 μg/mL or 1 μg/mL. This incubation is followed with several washings. The cell/antibody complexes thus formed are then contacted for 30 minutes at 4° C. with the secondary antibody diluted 1:50, an anti-human IgG Fc F(ab′)₂ coupled to a fluorochrome, phycoerythrin. […] Various negative controls are used to eliminate possible nonspecific binding, such as: the cells alone or directly in contact with the secondary antibody, or replacing the antibody tested with an irrelevant chimeric antibody (factor VIII anti-idiotype).

FcγRIIIa (CD16a) [7] = target: T3, FcγRIIIa (CD16a); assay: cell-based or functional assay

B1: humanized antibody 102E9H10 (antibody, human IgG1, kappa, V domains shown)
VH: QIHLVQSGPELKKPGESVKISCKASGYTFTDYSMHWVRQAPGQGLKWMGWINTETGEPTYAQDFKGRFVFSLDTSVSTAYLQINSLKNEDTSTYYCTRNGYYVGYYAMDYWGQGTSVTVSS
VL: QIQLTQSPSFLSASPGERVTITCSASSSVIYIHWFQQKPGTAPKLWIYSTSYLASGVPSRFSGSGSGTSYTLTISRMEAEDFATYYCQQRRSYPFTFGGGTKLEIKR
For B1, the “CD303 ectodomain-binding capacity relative to chimeric antibody 102E9” value (CD303 ectodomain) was 80%.

B2: humanized antibody 102E9H9 (antibody, human IgG1, kappa, V domains shown)
VH: B1 VH with R38K, Q62D
VL: B1 VL
B2 was tested, and the “CD303 ectodomain-binding capacity relative to chimeric antibody 102E9” value (CD303 ectodomain) was 71%.

B3: humanized antibody 102E9H7 (antibody, human IgG1, kappa)
heavy: not shown
light: QIQLTQSPSFLSASPGERVTITCSASSSVIYIHWFQQKPGKAPKLWIYSTSYLASGVPSRFSGSGSGTEYTLTISSMEAEDFATYYCQQRRSYPFTFGGGTKLEIKRTVAAPSVFIFPPSDEQLKSGTASVVCLLNNFYPREAKVQWKVDNALQSGNSQESVTEQDSKDSTYSLSSTLTLSKADYEKHKVYACEVTHQGLSSPVTKSFNRGEC
For B3, the “CD303 ectodomain-binding capacity relative to chimeric antibody 102E9” value (CD303 ectodomain) was 76%.

B4: humanized antibody 102E9H6 (antibody, human IgG1, kappa)
heavy: not shown
light: B3 light
For B4, the “CD303 ectodomain-binding capacity relative to chimeric antibody 102E9” value (CD303 ectodomain) was 73%.

B5: chimeric antibody 104C12 (antibody, human IgG1, kappa)
heavy: not shown
light: DLQMTQTPSSLSASLGDRVTISCRASQDINNYLSWYQEKPDGTFKLLIYYTSRLHSGVPSRFSGSGSGTDYSLTVRNLEQEDIGTYFCQQGKTLPWTFGGGTKLEIRRTVAAPSVFIFPPSDEQLKSGTASVVCLLNNFYPREAKVQWKVDNALQSGNSQESVTEQDSKDSTYSLSSTLTLSKADYEKHKVYACEVTHQGLSSPVTKSFNRGEC
notes: Produced in YB2/0
For B5, the “Bmax (MFI)” value [1] was 29 MFI, the EC50 [1] was 0.345 µg/mL and the “Bmax (MFI)” value [2] was 27.7 MFI. The EC50 [2] was 0.178 µg/mL, the IC50 (FcγRIIIa (CD16a) [3]) was 26.8 µg/mL and the “ADCC EC50, Fcγ chain-CD303 Jurkat target cells with NK cells” value (from here on “ADCC EC50”) [4] was 0.000214 µg/mL. For the same binder, the “ADCC Emax (% lysis), Fcγ chain-CD303 Jurkat target cells with NK cells” value (“ADCC Emax (% lysis)” below) [4] was 41.8 % lysis.

B6: humanized antibody 122A2H5 (antibody, human IgG1, kappa)
heavy: not shown
light: DIQMTQSTSSLSASLGDRVTITCQASQDISNYLNWYQQKPDGTVKLLIYYTSRLHTGVPSRFSGSGSGTDYSLTISNLDQEDIATYYCQQGNTLPWTFGGGTKLEIKRTVAAPSVFIFPPSDEQLKSGTASVVCLLNNFYPREAKVQWKVDNALQSGNSQESVTEQDSKDSTYSLSSTLTLSKADYEKHKVYACEVTHQGLSSPVTKSFNRGEC
In the case of B6, the “IC50 for IFN-α secretion from pDCs contained in PBMCs” value (“IC50 for IFN-α secretion” for short) [5] is reported as 0.819 ng/mL.

B7: humanized antibody 122A2H14 (antibody, human IgG1, kappa, V domains shown)
VH: QVQLQQSGAEVVKPGASVKISCKGSGYTFTDYSMHWVRQAHAKSLEWIGVISTYYGDSNYNQKFKGKVTMTVDTSSSTAYMELSRLRSDDTAVYYCARNGNFYVMDYWGQGTLVTVSS
VL: DIQMTQSTSSLSASLGDRVTITCQASQDISNYLNWYQQKPDGTVKLLIYYTSNLHTGVPSRFSGSGSGTDYSLTISNLQQEDIATYYCQQGNTLPWTFGGGTKLEIKR
B7: binds [6].

B8: humanized antibody 122A2H9 (antibody, human IgG1, kappa)
heavy: not shown
light: B6 light with T8P, L15V
B8 was tested, and the “IC50 for IFN-α secretion” value [5] was 0.911 ng/mL, the “IL-2 secretion by CD16 Jurkat cells: 50%, with ch122A2 = 1 (Mean)” value (FcγRIIIa (CD16a) [7]) was 0.73 ratio to ch122A2 and the “IL-2 secretion by CD16 Jurkat cells: 50%, with ch122A2 = 1 (experiment 2126 16 057)” value (FcγRIIIa (CD16a) [7]) was 0.66 ratio to ch122A2. The “IL-2 secretion by CD16 Jurkat cells: 50%, with ch122A2 = 1 (experiment 2126 16 059)” value (FcγRIIIa (CD16a) [7]) was 0.78 ratio to ch122A2 and the “IL-2 secretion by CD16 Jurkat cells: 50%, with ch122A2 = 1 (experiment 2126 16 066)” value (FcγRIIIa (CD16a) [7]) was 0.74 ratio to ch122A2.

B9: humanized antibody 122A2H7 (antibody, human IgG1, kappa, V domains shown)
VH: B7 VH with H41P, A42G, K43Q, S44G, T74K, R87T
VL: B7 VL with N53R, Q79D
In the case of B9, the “IC50 for IFN-α secretion” value [5] is reported as 0.865 ng/mL.

B10: humanized antibody 122A2H15 (antibody, human IgG1, kappa, V domains shown)
VH: B7 VH with H41P, A42G, K43Q, S44G, T74K, R87T
VL: B7 VL
B10: binds [6].

B11: humanized antibody 122A2H10 (antibody, human IgG1, kappa, V domains shown)
VH: B7 VH
VL: B7 VL with T8P, L15V, N53R, Q79D
B11 was tested, and the “IC50 for IFN-α secretion” value [5] was 0.947 ng/mL.

B12: chimeric antibody 104E10 (antibody, human IgG1, kappa)
heavy: not shown
light: QIVLTQSPAIMSASPGEKVTMTCSASSSVIYMHWFQQKPGTSPKLWIYSTSNLASGVPARFSGSGSGTSYSLTISRMEAEDAATYYCQQRRSYPYTFGGGTKLEIKRTVAAPSVFIFPPSDEQLKSGTASVVCLLNNFYPREAKVQWKVDNALQSGNSQESVTEQDSKDSTYSLSSTLTLSKADYEKHKVYACEVTHQGLSSPVTKSFNRGEC
notes: Produced in YB2/0
For B12, the “Bmax (MFI)” value [1] was 29.2 MFI, the EC50 [1] was 1.93 µg/mL and the “Bmax (MFI)” value [2] was 23.7 MFI. For the same binder, the EC50 [2] was 6.06 µg/mL, the IC50 (FcγRIIIa (CD16a) [3]) was 18.1 µg/mL and the “ADCC EC50” value [4] was 0.00828 µg/mL. The “ADCC Emax (% lysis)” value [4] was 40.5 % lysis.

B13: chimeric antibody 114D11 (antibody, human IgG1, kappa)
heavy: not shown
light: B12 light with M21I, I30F
notes: Produced in YB2/0
For B13, the “Bmax (MFI)” value [1] was 30.1 MFI, the EC50 [1] was 1.7 µg/mL and the “Bmax (MFI)” value [2] was 24.7 MFI. The EC50 [2] was 3.98 µg/mL, the IC50 (FcγRIIIa (CD16a) [3]) was 45 µg/mL and the “ADCC EC50” value [4] was 0.00361 µg/mL. The “ADCC Emax (% lysis)” value [4] was 37.4 % lysis.
